What follows are proteins tested on C/C(=C\COP(=O)(O)OP(=O)(O)O)CC[C@@H]1[C@@]2(C)CCCC(C)(C)[C@@H]2CC[C@@]1(C)O (assay: steady-state kinetics). Details: mean ± SE of three experiments; assay conditions only in the supplement.
Assay type: biochemical, Salvia sclarea

Protein | Km [µM] | kcat [s⁻¹] | kcat/Km [M⁻¹ s⁻¹]
sclareol synthase from Salvia sclarea (SsSS) (Salvia sclarea) (protein) AKMKENFKREDDKFPTTTTLRSEDIPSNLCIIDTLQRLGVDQFFQYEINTILDNTFRLWQEKHKVIYGNVTTHAMAFRLLRVKGYEVSSEELAPYGNQEAVSQQTNDLPMIIELYRAANERIYEEERSLEKILAWTTIFLNKQVQDNSIPDKKLHKLVEFYLRNYKGITIRLGARRNLELYDMTYYQALKSTNRFSNLCNEDFLVFAKQDFDIHEAQNQKGLQQLQRWYADCRLDTLNFGRDVVIIANYLASLIIGDHAFDYVRLAFAKTSVLVTIMDDFFDCHGSSQECDKIIELVKEWKENPDAEYGSEELEILFMALYNTVNELAERARVEQGRSVKEFLVKLWVEILSAFKIELDTWSNGTQQSFDEYISSSWLSNGSRLTGLLTMQFVGVKLSDEMLMSEECTDLARHVCMVGRLLNDVCSSEREREENIAGKSYSILLATEKDGRKVSEDEAIAEINEMVEYHWRKVLQIVYKKESILPRRCKDVFLEMAKGTFYAYGINDELTSPQQSKEDMKSFVF | 7 ± 2 | 0.53 ± 0.04 | 76000
sclareol synthase from Salvia sclarea (SsSS) (Salvia sclarea; N431Q) (protein) AKMKENFKREDDKFPTTTTLRSEDIPSNLCIIDTLQRLGVDQFFQYEINTILDNTFRLWQEKHKVIYGNVTTHAMAFRLLRVKGYEVSSEELAPYGNQEAVSQQTNDLPMIIELYRAANERIYEEERSLEKILAWTTIFLNKQVQDNSIPDKKLHKLVEFYLRNYKGITIRLGARRNLELYDMTYYQALKSTNRFSNLCNEDFLVFAKQDFDIHEAQNQKGLQQLQRWYADCRLDTLNFGRDVVIIANYLASLIIGDHAFDYVRLAFAKTSVLVTIMDDFFDCHGSSQECDKIIELVKEWKENPDAEYGSEELEILFMALYNTVNELAERARVEQGRSVKEFLVKLWVEILSAFKIELDTWSNGTQQSFDEYISSSWLSQGSRLTGLLTMQFVGVKLSDEMLMSEECTDLARHVCMVGRLLNDVCSSEREREENIAGKSYSILLATEKDGRKVSEDEAIAEINEMVEYHWRKVLQIVYKKESILPRRCKDVFLEMAKGTFYAYGINDELTSPQQSKEDMKSFVF | 10 ± 1 | 0.47 ± 0.02 | 47000
sclareol synthase from Salvia sclarea (SsSS) (Salvia sclarea; N431I) (protein) AKMKENFKREDDKFPTTTTLRSEDIPSNLCIIDTLQRLGVDQFFQYEINTILDNTFRLWQEKHKVIYGNVTTHAMAFRLLRVKGYEVSSEELAPYGNQEAVSQQTNDLPMIIELYRAANERIYEEERSLEKILAWTTIFLNKQVQDNSIPDKKLHKLVEFYLRNYKGITIRLGARRNLELYDMTYYQALKSTNRFSNLCNEDFLVFAKQDFDIHEAQNQKGLQQLQRWYADCRLDTLNFGRDVVIIANYLASLIIGDHAFDYVRLAFAKTSVLVTIMDDFFDCHGSSQECDKIIELVKEWKENPDAEYGSEELEILFMALYNTVNELAERARVEQGRSVKEFLVKLWVEILSAFKIELDTWSNGTQQSFDEYISSSWLSIGSRLTGLLTMQFVGVKLSDEMLMSEECTDLARHVCMVGRLLNDVCSSEREREENIAGKSYSILLATEKDGRKVSEDEAIAEINEMVEYHWRKVLQIVYKKESILPRRCKDVFLEMAKGTFYAYGINDELTSPQQSKEDMKSFVF | 6 ± 1 | 0.38 ± 0.02 | 63000
